The chains are these.
B1: TCN-544 (5082_A19) (antibody, V domains shown)
VH: QVQLQESGPGLVKPSETLSLTCTVSRGSIGHYFWSWIRQPPGKGLEWIGYISYSGSTKYNPSLRSRVTISVDTSKNQFSLNLNSVTATDTALYYCAREDYDILTGAGPGMEVWGQGTTVTVSS
VL: QSMLTQPPSASGTPGQRVTISCSGSSSNIGSNTVNWFKHLPGTAPKLLIYRNDLRPSGVPDRFSGSKSGTSASLAISGLQSEDEADYYCATWDDSLNGFYVFGTGTKVTVL
B2: TCN-532 (5262_H18) (antibody, V domains shown)
VH: QVQLQESGPGLVKPSETLSLTCTVSGGSVSSETYYWSWIRQPPGKGLEWIGYIYYIGNTDYRPSLKSRVTISLDTSKNQFSLKLSSVTAADTAVYYCARGAYYDSSGYPAFYIWGQGTMVTVSS
VL: QSVLTQPPSVSGAPGQRVTISCTGSSSNIGSDYDVHWYKQLPGTAPKLLIFGNSNRPSGVPDRFSGSKSGTSASLAITGLQAEDEADYYCQSYDSSLSGFHVFGSGTKVTVL
B3: TCN-547 (5092_F11) (antibody, V domains shown)
VH: QVQLQESGPGLVKPSQTLSLTCTVSGDSISSVDHYWSWIRQHPVKGLEWIGFMYYSASTYYNPSLKSRVTISTDTSKNQFSLRLSSVTAADTAVYYCARGTCAGDCSLHYYYYGLDVWGQGRTVTVSS
VL: DIQMTQSPSSLSASVGDRVTITCRASQSISSYLNWYQHKPGKAPKVLMYAVSILQSGVPSRFSGSGSGADFTLTISSLQPEDFATYYCQQSYSSPLTFGGGTKVEIK
B4: TCN-521 (3280_D18) (antibody, V domains shown)
VH: EVQLVQSGGGLVQPGGSLRLACVVSGFTVTSNYITWVRQAPGKGLEWVSVIYSHGRAYYSASVNGRFTISRHTSKNTVYLEMNSLRPEDTAVYYCAGGGLVGGYDEYFFDYWGQGTLATVSS
VL: ETVLTQSPGTLSLTPGERATLSCRVGQSVSGSHLAWYQQKPGQAPRLLIYGASSRATGIPDRFGGSVSGTDFTLTISRLEPEDSAVYYCQQYGDSRYTFGQGTKLEIK
B5: TCN-531 (5091_H13) (antibody, V domains shown)
VH: EVQLVESGGDLVQPGRSLKLSCTGSGFTFGDYGVTWVRQAPGKGLEWVGFIRTRPWGGTADTAASVKGRFTISRDDSKSLAYLQMNSLKTEDTAVYYCCRDAPPNVEVASMTNWYFDLWGRGTLVTVSS
VL: DIQLTQSPSSLSASVGDRVTITCRASQGILNCLAWYQQKPGKVPNLLMYAASTLQSGVPSRFSGSGFGTDFTLTISSLQPEDVATYYCQTYGGVSTFGGGTKVEIR
B6: TCN-530 (5248_H10a) (antibody, V domains shown)
VH: QVQLVQSGAEVRKPGSSVKVSCKASGGPFMSYAIGWVRQAPGQGLEWMGGINPVFGRPHYAQKFQGRVTIATDDSTKTSYMELSSLTSEDTGMYYCASRYSRSSPGTFESWGQGTLVTVSS
VL: EIVMTQFPATLSVSPGERVTLSCRASQSVSNNLAWYQQKPGQPPRLLIYDASTRATGVPAKFSGTGSGTEFTLSISSLQSEDFAVYYCQQYHNWPPSYSFGLGTKLEIK
B7: TCN-533 (5256_A17) (antibody, V domains shown)
VH: QVQLVQSGADVKKPGSSVTVSCKASGGSFSNYGINWVRQAPGQGLEWMGGIIPLINAPNYAPKFQGRVTITADMFSNIVSLQLTSLRTDDTAVYYCARRKMTTAIDYWGQGTLVTVSS
VL: QPVLSQPPSASASLGASVTLTCTLSSGFDNYQVAWYQQRPGKGPRFVMRVGNGGNVASKGDGIPDRFSVSGSGLNRYLTIKNIQEDDESDYYCGADHGSGNNFVSPYVFGGGTKLTVL
B8: TCN-545 (5082_I15) (antibody, V domains shown)
VH: QVQLQQWGAGLLKPSETLSLSCAVFGGSFSDYYWTWIRQPPGKGLEWIGEIKHSGRTNYNPSLESRVTISVDTSKNQFSLKLSSVTAADTAIYYCARGTDPDTEGYCRSGSCSAFDFWGQGTLVTVSS
VL: EIVLTQSPGTLSLSPGERATLSCRASHFVNYRSLAWYQQTPGQVPRLLIYGASTRATGIPDRFSGSGSGTDFTLTISRLEPEDFAVYFCQQYGGSPRYTFGQGTRLEIK
B9: TCN-546 (5089_L08) (antibody, V domains shown)
VH: QVQLQQWGAGLLKPSETLSLTCGVYGGSLSDYYWSWIRQPPGKGLEWIGEINHSGGTNYNPSLKRRVTISVDTSKKQFSLKMNSVTAADTAVYYCARGTDPDTEVYCRAGNCAAFDFWGQGTLVTVSS
VL: EIVLTQSPGTLSLSPGERATLSCRASHFVIGRAVAWYQQKPGQAPRLLIYGASSRATGIPDRFSGSGSGTDFTLTISRLETEDFAVFYCQHYGSSPRYAFGQGTKLEIK
B10: TCN-536 (5095_N01) (antibody, V domains shown)
VH: QVQLQQWGAGLLKPSETLSLTCAVYGGSFSVSGYYWSWIRQPPGRGLEWIGEISHGGSTNYNPSLKSRVTISVDTTKNQFSLRLSSVTAADTAVYYCARGTDPDTEVYCRVGNCAAFDYWGQGSLVTVSS
VL: EIILAQSPGTLSLSPGERATLSCRASQFVSTRSLAWYQQRPGQAPRLLIYGASSRATGIPDRFSGSGSGTDFTLTISRLEPEDFAVYYCQHYGYSPRYAFGQGSKVEIK
B11: TCN-540 (5060_F05) (antibody, V domains shown)
VH: QVQLVQSGGGVVQPGRSLRLSCAASGFTFSSYAMHWVRQAPGKGLEWVAIISYDGNDQYYTDSVKGRFTISRDSSKVYLQMHRLRPEDTAVYYCAKEFETSGYFHGSFDYWGQGILVTVSS
VL: QSALTQPASVSGSPGQSITISCTGTSSDVGGYNYVSWYQQHPGKAPKLLIYEVTNWPSGVSNRFSGSKSGNTASLTISGLQAEDEADYYCSSYAGSSTWVFGGGTRVTVL
B12: TCN-542 (5079_A16) (antibody, V domains shown)
VH: QVQLQESGPGLVKPSQTLSLTCTVSGGSISSGNYYWNWVRQHPGKGLEWIGYIYYRGSTFYNPSLKSRVTISIDTSKNQFSLRLSSVTAADTAVYYCAKDTRSSLDNYQYGMDVWGQGTTVTVSS
VL: QTVVTQEPSLTVSPGGTVTLTCASSTGAVTSSYFPNWFQQKPGQAPRPLIYSTTIRHSWTPARFSGSLLGGKAALTLSGVQPEDEADYYCLLYSGGDPVAFGGGTKLTVL
B13: TCN-534 (5249_B02) (antibody, V domains shown)
VH: QVQLVQSGAEVKKPGSSVKVSCRESGGTFNGYTITWVRQAPGQGLEWMGGIIPMMGTVNYAQKLQGRVTITTDYFTKTAYMDLNNLRSEDTAMYYCVKIRYTGQQLLWGQGTLVTVSS
VL: DIQMTQSPSTLSASIGDRVTITCRASQSIASWLAWYQQKPGKAPKLLIYEAVNLESGVPSRFSGSGSGTDFTLTISSLQPDDFATYFCQHYGTISQTFGGGTKVEIK
B14: TCN-526 (5084_C17) (antibody, V domains shown)
VH: EVLMVESGGGLVQPGGSVRLSCVASGFSFSSHWMTWVRQAPGKGLEWVANIEDDGGDKYYVDSVKGRFIISRDNAKNSVYLQMNSLRAEDTAVYFCARGSGSSDRSDYDPHYYYYLDVWGKGATVTVSS
VL: DIQLTQSPSSLSASVGDRVTITCRASQSISRYLNWYQQKPGKAPKLLLFAASTLLDGVPSRFSGSGSGTDFTLTISSLQPEDFATYYCQRNHSPSWTFGQGTRVEIK
B15: TCN-539 (5056_A08) (antibody, V domains shown)
VH: QVQLVESGGGVVQPGRSLRLSCAASEITFITYAMHWVRQAPGKGLEWVALISDDGSNKFYADSVKGRFTISRDNSKNTLYLQMNSLRAEDTAAYYCAREGVYFDSGTYRGYFDYWGQETLVTVSS
VL: EIVLTQSPATLSLSPGERATLSCRASQSVSSYLAWYQQKPGQAPRLLIYDASNRATGIPARFSGSGSGTDFTLTISSLEPEDFAVYYCQQRSHWPPITFGQGTRLEIK
B16: TCN-523 (5248_A17) (antibody, V domains shown)
VH: QVQLVQSGAEVKKPGSSVKVSCKASGGSFSNYAFSWVRQAPGQGLEWMGGTIPLLGTTNYAQKFQGRVTISADQFTSTAYMELGSLRSEDTAVYYCTRRKMTTAFDSWGQGTLVTVSS
VL: QPVLTQPPSASASLGASVTLTCTLSSAYSNYKVDWYQQRPGKGPRFVMRVGTGGIVGSKGDGIPDRFSVLGSGLNRYLTIKNIQEEDESDYHCGADHGSGSNFVSPYVFGGGTKLTVL
B17: TCN-527 (5086_C06) (antibody, V domains shown)
VH: QVQLQESGPGLVKPSETLSLNCAVSGGSISNYYWSWIRQPPGKGLEWIGYISYNGRPKYNPSLTSRVTISVDTSKDQFSLELRSVTAADTALYYCARETRFGELLSPYDAFEIWGQGTMVTVSS
VL: DIQMTQSPSSLSASVGDRVTMTCRASQNIRSYLNWYQQRPGTAPKLLIYAASTLHSGVPSRFSGGGSGTDFTLTINNLQPEDFASYYCQQSYDNPQTFGQGTKVEIK
B18: TCN-528 (5087_P17) (antibody, V domains shown)
VH: QVQLVQSGSEVKKPGASVKVSCKASGYTFTNYDINWIRQAPGQGLEWMGWINPNSGTTGSAQRFQGRVTITVDTSITTVYMELSSLRSDDTAIYYCARGRELLRLQHFLTDSQSERRDCFDPWGQGTLVTVSS
VL: DIQMTQSPSSLSASVGDRVTITCRANQDIGIYLNWYQQNPGKVPKLLLHGASSLQGGVPSRFSASGSGTDFTLTIHSLQPEDLATYYCQQSRRLPYTFGQGTRVELK
B19: TCN-543 (5081_G23) (antibody, V domains shown)
VH: QVHLVQSGAEVRKPGDSVKVSCKTSGYTFSTYPVAWVRQVPGQGLEWMGWISTYNGNTNFAQNFQGRVTLTTDTTTNTAYMEVRSLKFDDTAVYYCARVEGSYRDFWNNQNRFDPWGQGTLVTVSS
VL: SYVLTQPPSVSVAPGQTARISCGGSNIGGKSVHWYQQKPGQAPVLVVYDDSGRPSGIPERFSGSNSGDTATLTISRVEAGDEADYFCQVWDNFGGVFGTGTKVTVL
B20: TCN-535 (5246_P19) (antibody, V domains shown)
VH: QVQLVQSGSEVKKPGTSVKVSCTASGSVFTNYGISWVRQAPGQGLEWMGGIIPLFGAAKYAQKFQGRVTITADESTKTVYMELSRLTSKDTAIYFCAKAPRVYEYYFDQWGQGTPVTVSS
VL: EIVLTQSPGTLSLSPGERATLSCRASQSVSSSQLAWYQQKPGQAPRLIIYGASTRATGIPDRFSGSGSGTDFTLTIGRLEPEDFAVFFCQQYSTSPPTFGQGTKVDFK
B21: TCN-563 (5237_B21) (antibody, V domains shown)
VH: QVQLAQSGAEVKRPGSSVKVSCTASGGIFRKNAISWVRQAPGQGLEWMGGIIAVFNTANYAQKFQGRVKITADESGNTAYMELSSLRSDDTAVYYCASHPKYFYGSGSYPDFWGQGTLVTVSS
VL: QSALTQPRSVSGSPGQSVTISCTGSSSDVGASNSVSWYQQHPGKAPKLVIYDVTERPSGVPHRFSGSKSGNTASLTVSGLQPEDEADYFCCAYGGKYLVVFGGGTKVTVL

The target in the test is Hemagglutinin of influenza A/Japan/305/57 (H2N2), on inactivated whole virions (Influenza A virus A/Japan/305/1957 …, UniProt P03451 16-562). As to the kind of experiment: ELISA, B cell culture supernatant on inactivated whole virions. Background: In an ELISA, binding on a coated surface is turned into a signal by an enzyme label.
In turn, B1 returned an OD450 of 0.07 OD450. In the case of B2 it was 0.07 OD450; in that of B3, 0.07 OD450; in that of B4, 3.1 OD450. The figure for B5 is 0.67 OD450. The figure for B6 is 1.73 OD450; for B7 it is 1.1 OD450; for B8 it is 0.06 OD450. With B9, the OD450 is 0.06 OD450. In the case of B10 it was 0.08 OD450; in that of B11, 3.62 OD450; in that of B12, 0.08 OD450. The figure for B13 is 2.56 OD450; for B14 it is 0.07 OD450; for B15 it is 0.06 OD450. The figure for B16 is 1.62 OD450; for B17 it is 1.48 OD450.

As for B18, the OD450 was 2.82 OD450. B19 had an OD450 of 3.62 OD450. The figure for B20 is 1.46 OD450. In the case of B21 it was 1.23 OD450.

The values above are taken from patent publication US20120207760A1 (THERACLONE SCIENCES, published 2012).
